Reference: patent US20190177423A1

Experiments:
[1] = biological target: FcγRIIIa(V158) (Sino Biological Inc, 10389-H08C1) (UniProt P08637); test: Binding ELISA on FcγRIIIa(V158); relative to MIL62 as 100%
[2] = biological target: FcγRIIIa(V158) (Sino Biological Inc, 10389-H08C1) (UniProt P08637); test: Binding ELISA: FcγRIIIa captured on anti-His coated plate; IgG pre-complexed with goat F(ab')2 anti-human-κ (1:2 w/w); HRP anti-human IgG F(ab')2 detection

FcγRIIIa(V158) (Sino Biological Inc, 10389-H08C1), sequence (P08637 17-208 F176V): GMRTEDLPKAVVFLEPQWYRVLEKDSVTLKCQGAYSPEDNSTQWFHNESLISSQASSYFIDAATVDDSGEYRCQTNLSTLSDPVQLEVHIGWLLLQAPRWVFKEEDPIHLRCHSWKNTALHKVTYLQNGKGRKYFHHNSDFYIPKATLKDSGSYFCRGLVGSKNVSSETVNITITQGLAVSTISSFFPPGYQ

Substance: RITUXAN (rituximab) (antibody)
- Relative Bioactivity (%) [1]: 26.8%
- EC50 [2]: 0.194 µg/mL
